Experimental findings from patent US20260217779A1 (Chugai, published 2026) are described below.

This test concerns the target T1, human CXCR3 (hCXCR3) on Ba/F3 transfectant cells (human, UniProt P49682 1-368).
T1 sequence: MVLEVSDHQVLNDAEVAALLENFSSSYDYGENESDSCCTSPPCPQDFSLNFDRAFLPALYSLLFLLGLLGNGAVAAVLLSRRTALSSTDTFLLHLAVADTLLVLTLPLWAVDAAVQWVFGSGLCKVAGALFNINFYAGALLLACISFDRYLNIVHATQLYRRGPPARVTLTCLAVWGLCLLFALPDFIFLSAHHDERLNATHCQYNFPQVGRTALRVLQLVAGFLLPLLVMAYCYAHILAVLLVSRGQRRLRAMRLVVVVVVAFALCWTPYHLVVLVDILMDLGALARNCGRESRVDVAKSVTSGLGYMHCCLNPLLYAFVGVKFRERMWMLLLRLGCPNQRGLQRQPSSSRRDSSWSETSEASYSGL
Nature of the test: cell-based or functional assay.

B1: hCXCL11.0050-G1T4k.one//VHn-G1T4h.one.H435R (Fc fusion)
chain 1: FNPMFKRGRCLCIGPGVKAVKVADIEKASIMYPSNNCDKIEVIITLKENKGQRCLNPKSKQARLIIKKVERKNFEPKSSDKTHTCPPCPAPELRRGPSVFLFPPKPKDTLMISRTPEVTCVVVDVSHEDPEVKFNWYVDGVEVHNAKTKPREEQYNSTYRVVSVLTVLHQDWLNGKEYKCKVSNKGLPSSIEKTISKAKGQPREPQVCTLPPSREEMTKNQVSLWCLVKGFYPSDIAVEWESNGQPENNYKTTPPVLDSDGSFFLYSKLTVDKSRWQEGNVFSCSVMHEALHNHYTQKSLSLSP
chain 2: EPKSSDKTHTCPPCPAPELRRGPSVFLFPPKPKDTLMISRTPEVTCVVVDVSHEDPEVKFNWYVDGVEVHNAKTKPREEQYNSTYRVVSVLTVLHQDWLNGKEYKCKVSNKGLPSSIEKTISKAKGQPREPQVYTLPPSRCEMTKNQVSLSCAVKGFYPSDIAVEWESNGQPENNYKTTPPVLDSDGSFFLVSKLTVDKSRWQEGNVFSCSVMHEALHNRYTQKSLSLSP
As to B1, the “Activity retention rate at 33 nM” value came to 30%, the “Activity retention rate at 100 nM” value was 51%, the “Activity retention rate at 300 nM” value worked out at 64% and the “Luminescence value at 33 nM” value was determined as 2.32e+06. In addition, the “Luminescence value at 100 nM” value was 8.49e+06 and the “Luminescence value at 300 nM” value was 7.92e+06.

B2: hCXCL11.0054-G1T4k.one//VHn-G1T4h.one.H435R (Fc fusion)
chain 1: FSPMFKRGRCLCIGPGVKAVKVADIEKASIMYPSNNCDKIEVIITLKENKGQRCLNPKSKQARLIIKKVERKNFEPKSSDKTHTCPPCPAPELRRGPSVFLFPPKPKDTLMISRTPEVTCVVVDVSHEDPEVKFNWYVDGVEVHNAKTKPREEQYNSTYRVVSVLTVLHQDWLNGKEYKCKVSNKGLPSSIEKTISKAKGQPREPQVCTLPPSREEMTKNQVSLWCLVKGFYPSDIAVEWESNGQPENNYKTTPPVLDSDGSFFLYSKLTVDKSRWQEGNVFSCSVMHEALHNHYTQKSLSLSP
chain 2: EPKSSDKTHTCPPCPAPELRRGPSVFLFPPKPKDTLMISRTPEVTCVVVDVSHEDPEVKFNWYVDGVEVHNAKTKPREEQYNSTYRVVSVLTVLHQDWLNGKEYKCKVSNKGLPSSIEKTISKAKGQPREPQVYTLPPSRCEMTKNQVSLSCAVKGFYPSDIAVEWESNGQPENNYKTTPPVLDSDGSFFLVSKLTVDKSRWQEGNVFSCSVMHEALHNRYTQKSLSLSP
With B2, the “Activity retention rate at 33 nM” value was 42%, the “Activity retention rate at 100 nM” value was 63%, the “Activity retention rate at 300 nM” value was determined as 51% and the “Luminescence value at 33 nM” value is 3.24e+06. In addition, the “Luminescence value at 100 nM” value was 1.05e+07 and the “Luminescence value at 300 nM” value was 6.34e+06.

B3: hCXCL11.0053-G1T4k.one//VHn-G1T4h.one.H435R (Fc fusion)
chain 1: FRPMFKRGRCLCIGPGVKAVKVADIEKASIMYPSNNCDKIEVIITLKENKGQRCLNPKSKQARLIIKKVERKNFEPKSSDKTHTCPPCPAPELRRGPSVFLFPPKPKDTLMISRTPEVTCVVVDVSHEDPEVKFNWYVDGVEVHNAKTKPREEQYNSTYRVVSVLTVLHQDWLNGKEYKCKVSNKGLPSSIEKTISKAKGQPREPQVCTLPPSREEMTKNQVSLWCLVKGFYPSDIAVEWESNGQPENNYKTTPPVLDSDGSFFLYSKLTVDKSRWQEGNVFSCSVMHEALHNHYTQKSLSLSP
chain 2: EPKSSDKTHTCPPCPAPELRRGPSVFLFPPKPKDTLMISRTPEVTCVVVDVSHEDPEVKFNWYVDGVEVHNAKTKPREEQYNSTYRVVSVLTVLHQDWLNGKEYKCKVSNKGLPSSIEKTISKAKGQPREPQVYTLPPSRCEMTKNQVSLSCAVKGFYPSDIAVEWESNGQPENNYKTTPPVLDSDGSFFLVSKLTVDKSRWQEGNVFSCSVMHEALHNRYTQKSLSLSP
Consider B3, for which the “Activity retention rate at 33 nM” value worked out at 8%, the “Activity retention rate at 100 nM” value was found to be 26%, the “Activity retention rate at 300 nM” value stood at 60% and the “Luminescence value at 33 nM” value turned out to be 595000. The “Luminescence value at 100 nM” value stood at 4.26e+06 and the “Luminescence value at 300 nM” value turned out to be 7.43e+06.

B4: hCXCL11.0056-G1T4k.one//VHn-G1T4h.one.H435R (Fc fusion)
chain 1: FVPMFKRGRCLCIGPGVKAVKVADIEKASIMYPSNNCDKIEVIITLKENKGQRCLNPKSKQARLIIKKVERKNFEPKSSDKTHTCPPCPAPELRRGPSVFLFPPKPKDTLMISRTPEVTCVVVDVSHEDPEVKFNWYVDGVEVHNAKTKPREEQYNSTYRVVSVLTVLHQDWLNGKEYKCKVSNKGLPSSIEKTISKAKGQPREPQVCTLPPSREEMTKNQVSLWCLVKGFYPSDIAVEWESNGQPENNYKTTPPVLDSDGSFFLYSKLTVDKSRWQEGNVFSCSVMHEALHNHYTQKSLSLSP
chain 2: EPKSSDKTHTCPPCPAPELRRGPSVFLFPPKPKDTLMISRTPEVTCVVVDVSHEDPEVKFNWYVDGVEVHNAKTKPREEQYNSTYRVVSVLTVLHQDWLNGKEYKCKVSNKGLPSSIEKTISKAKGQPREPQVYTLPPSRCEMTKNQVSLSCAVKGFYPSDIAVEWESNGQPENNYKTTPPVLDSDGSFFLVSKLTVDKSRWQEGNVFSCSVMHEALHNRYTQKSLSLSP
For the molecule B4, the “Activity retention rate at 33 nM” value came to 8%, the “Activity retention rate at 100 nM” value is 33%, the “Activity retention rate at 300 nM” value is 59% and the “Luminescence value at 33 nM” value is 643000. Besides, the “Luminescence value at 100 nM” value turned out to be 5.57e+06 and the “Luminescence value at 300 nM” value was found to be 7.33e+06.

B5: hCXCL11.0057-G1T4k.one//VHn-G1T4h.one.H435R (Fc fusion)
chain 1: FWPMFKRGRCLCIGPGVKAVKVADIEKASIMYPSNNCDKIEVIITLKENKGQRCLNPKSKQARLIIKKVERKNFEPKSSDKTHTCPPCPAPELRRGPSVFLFPPKPKDTLMISRTPEVTCVVVDVSHEDPEVKFNWYVDGVEVHNAKTKPREEQYNSTYRVVSVLTVLHQDWLNGKEYKCKVSNKGLPSSIEKTISKAKGQPREPQVCTLPPSREEMTKNQVSLWCLVKGFYPSDIAVEWESNGQPENNYKTTPPVLDSDGSFFLYSKLTVDKSRWQEGNVFSCSVMHEALHNHYTQKSLSLSP
chain 2: EPKSSDKTHTCPPCPAPELRRGPSVFLFPPKPKDTLMISRTPEVTCVVVDVSHEDPEVKFNWYVDGVEVHNAKTKPREEQYNSTYRVVSVLTVLHQDWLNGKEYKCKVSNKGLPSSIEKTISKAKGQPREPQVYTLPPSRCEMTKNQVSLSCAVKGFYPSDIAVEWESNGQPENNYKTTPPVLDSDGSFFLVSKLTVDKSRWQEGNVFSCSVMHEALHNRYTQKSLSLSP
On to B5, for which the “Activity retention rate at 33 nM” value worked out at 7%, the “Activity retention rate at 100 nM” value came out at 37%, the “Activity retention rate at 300 nM” value worked out at 86% and the “Luminescence value at 33 nM” value stood at 501000. Also, the “Luminescence value at 100 nM” value is 6.21e+06 and the “Luminescence value at 300 nM” value was determined as 1.07e+07.

B6: hCXCL11.0055-G1T4k.one//VHn-G1T4h.one.H435R (Fc fusion)
chain 1: FTPMFKRGRCLCIGPGVKAVKVADIEKASIMYPSNNCDKIEVIITLKENKGQRCLNPKSKQARLIIKKVERKNFEPKSSDKTHTCPPCPAPELRRGPSVFLFPPKPKDTLMISRTPEVTCVVVDVSHEDPEVKFNWYVDGVEVHNAKTKPREEQYNSTYRVVSVLTVLHQDWLNGKEYKCKVSNKGLPSSIEKTISKAKGQPREPQVCTLPPSREEMTKNQVSLWCLVKGFYPSDIAVEWESNGQPENNYKTTPPVLDSDGSFFLYSKLTVDKSRWQEGNVFSCSVMHEALHNHYTQKSLSLSP
chain 2: EPKSSDKTHTCPPCPAPELRRGPSVFLFPPKPKDTLMISRTPEVTCVVVDVSHEDPEVKFNWYVDGVEVHNAKTKPREEQYNSTYRVVSVLTVLHQDWLNGKEYKCKVSNKGLPSSIEKTISKAKGQPREPQVYTLPPSRCEMTKNQVSLSCAVKGFYPSDIAVEWESNGQPENNYKTTPPVLDSDGSFFLVSKLTVDKSRWQEGNVFSCSVMHEALHNRYTQKSLSLSP
With B6, the “Activity retention rate at 33 nM” value was 39%, the “Activity retention rate at 100 nM” value is 58%, the “Activity retention rate at 300 nM” value was determined as 42% and the “Luminescence value at 33 nM” value came to 2.98e+06. In addition, the “Luminescence value at 100 nM” value is 9.65e+06 and the “Luminescence value at 300 nM” value turned out to be 5.27e+06.

B7: hCXCL11.0052-G1T4k.one//VHn-G1T4h.one.H435R (Fc fusion)
chain 1: FQPMFKRGRCLCIGPGVKAVKVADIEKASIMYPSNNCDKIEVIITLKENKGQRCLNPKSKQARLIIKKVERKNFEPKSSDKTHTCPPCPAPELRRGPSVFLFPPKPKDTLMISRTPEVTCVVVDVSHEDPEVKFNWYVDGVEVHNAKTKPREEQYNSTYRVVSVLTVLHQDWLNGKEYKCKVSNKGLPSSIEKTISKAKGQPREPQVCTLPPSREEMTKNQVSLWCLVKGFYPSDIAVEWESNGQPENNYKTTPPVLDSDGSFFLYSKLTVDKSRWQEGNVFSCSVMHEALHNHYTQKSLSLSP
chain 2: EPKSSDKTHTCPPCPAPELRRGPSVFLFPPKPKDTLMISRTPEVTCVVVDVSHEDPEVKFNWYVDGVEVHNAKTKPREEQYNSTYRVVSVLTVLHQDWLNGKEYKCKVSNKGLPSSIEKTISKAKGQPREPQVYTLPPSRCEMTKNQVSLSCAVKGFYPSDIAVEWESNGQPENNYKTTPPVLDSDGSFFLVSKLTVDKSRWQEGNVFSCSVMHEALHNRYTQKSLSLSP
As to B7, the “Activity retention rate at 33 nM” value turned out to be 77%, the “Activity retention rate at 100 nM” value was 90%, the “Activity retention rate at 300 nM” value is 67% and the “Luminescence value at 33 nM” value turned out to be 5.88e+06. Moreover, the “Luminescence value at 100 nM” value came out at 1.51e+07 and the “Luminescence value at 300 nM” value was determined as 8.33e+06.

B8: hCXCL11.0051-G1T4k.one//VHn-G1T4h.one.H435R (Fc fusion)
chain 1: FPPMFKRGRCLCIGPGVKAVKVADIEKASIMYPSNNCDKIEVIITLKENKGQRCLNPKSKQARLIIKKVERKNFEPKSSDKTHTCPPCPAPELRRGPSVFLFPPKPKDTLMISRTPEVTCVVVDVSHEDPEVKFNWYVDGVEVHNAKTKPREEQYNSTYRVVSVLTVLHQDWLNGKEYKCKVSNKGLPSSIEKTISKAKGQPREPQVCTLPPSREEMTKNQVSLWCLVKGFYPSDIAVEWESNGQPENNYKTTPPVLDSDGSFFLYSKLTVDKSRWQEGNVFSCSVMHEALHNHYTQKSLSLSP
chain 2: EPKSSDKTHTCPPCPAPELRRGPSVFLFPPKPKDTLMISRTPEVTCVVVDVSHEDPEVKFNWYVDGVEVHNAKTKPREEQYNSTYRVVSVLTVLHQDWLNGKEYKCKVSNKGLPSSIEKTISKAKGQPREPQVYTLPPSRCEMTKNQVSLSCAVKGFYPSDIAVEWESNGQPENNYKTTPPVLDSDGSFFLVSKLTVDKSRWQEGNVFSCSVMHEALHNRYTQKSLSLSP
In the case of B8, the “Activity retention rate at 33 nM” value turned out to be 84%, the “Activity retention rate at 100 nM” value is 89%, the “Activity retention rate at 300 nM” value is 82% and the “Luminescence value at 33 nM” value was 6.46e+06. Moreover, the “Luminescence value at 100 nM” value is 1.49e+07 and the “Luminescence value at 300 nM” value turned out to be 1.02e+07.
